# Experimental data as given in patent US20040265918A1.
# Columns and labels:
# [1] = biological target: p29^GFP-labeled vesicles (vesicles carrying a GFP-tagged p29 fusion protein) [GFP: P42212]; experiment: competition with native myosin V in the p29^GFP vesicle / F-actin binding assay, 10 nM T4, ~2-3 pmol polypeptide
# [2] = biological target: p29 vesicles (vesicles carrying p29, the substrate binding subunit of type II iodothyronine 5'-deiodinase, D2) (rat) (UniProt Q62876); experiment: in vitro actin binding assay, competition with native F-actin-bound myosin V, 10 nM T4
# [3] = biological target: F-actin (actin cytoskeleton of rat astrocytes, Triton-insoluble fraction) (rat); experiment: in vitro actin binding assay, release after 0.1 mM Ca^2+, 1 mM Mg^2+, 0.1 mM ATP
# [4] = biological target: F-actin (actin cytoskeleton of rat astrocytes, Triton-insoluble fraction) (rat); experiment: in vitro actin binding assay, release with 5 mM EGTA
# [5] = biological target: F-actin (actin cytoskeleton of rat astrocytes, Triton-insoluble fraction) (rat); experiment: in vitro actin binding assay (F-lysate plus V-lysate, Triton fractionation, SDS-PAGE)
# [6] = biological target: F-actin (actin cytoskeleton of rat astrocytes, Triton-insoluble fraction) (rat); experiment: in vitro actin binding assay, Triton fractionation, gamma counting and SDS-PAGE
# [7] = biological target: F-actin (actin cytoskeleton of rat astrocytes, Triton-insoluble fraction) (rat); experiment: F-lysate plus V-lysate with p29^GFP vesicles, fluorescence of the Triton-insoluble pellet
substance,measurement,setting,value
? myosin ^1513 (residues 1513-1852) (from UniProt Q99104 1513-1852),percent decrease of T4-dependent p29 binding,[1],> 75%
"? myosin V^tail (entire myosin V tail, residues 953 to 1852) (from UniProt Q99104 953-1852)",percent of the T4-dependent binding of p29 vesicles to F-actin blocked (5 µl),[2],50%
same,percent of the p29 binding blocked (10 µl),[2],> 95%
same,percent decrease of p29 binding to F-actin,[1],> 75%
"p29 vesicles (vesicles carrying p29, the substrate binding subunit of type II iodothyronine 5'-deiodinase, D2) (from UniProt Q62876 1-234)","percent of p29 vesicles released from F-actin by Ca^2+, Mg^2+ and ATP",[3],70%
same,percent of the Ca^2+-stimulated release of p29 from F-actin blocked by EGTA,[4],> 50%
same,"percent of p29 remaining in the non-actin bound, Triton-soluble fraction (10 nM T3)",[5],> 90%
same,"percent of radiolabeled p29 bound to the Triton insoluble, F-actin fraction (10 nM T4)",[5],> 70%
same,percent of total p29 vesicles bound to F-actin (after 10 nM T4),[6],80%
p29^GFP-labeled vesicles (vesicles carrying a GFP-tagged p29 fusion protein) (from UniProt P42212 1-238),percent increase in p29^GFP vesicle binding to F-actin at 100 nM T3,[7],10 to 20%
? myosin ^1767 (residues 1767-1852) (from UniProt Q99104 1767-1852),percent decrease of T4-dependent p29 binding,[1],> 75%
? myosin ^1830 (residues 1830-1852) (from UniProt Q99104 1830-1852) (peptide),percent decrease of T4-dependent p29 binding,[1],> 75%
